In PMC4285774:
Where two headings read alike, the source gives them in different places.

How the values were obtained:
Assay in all cases: fluorescence anisotropy
Prp2 [1] = molecular target: T1, Prp2 (UniProt P20095 1-876)
T1 sequence: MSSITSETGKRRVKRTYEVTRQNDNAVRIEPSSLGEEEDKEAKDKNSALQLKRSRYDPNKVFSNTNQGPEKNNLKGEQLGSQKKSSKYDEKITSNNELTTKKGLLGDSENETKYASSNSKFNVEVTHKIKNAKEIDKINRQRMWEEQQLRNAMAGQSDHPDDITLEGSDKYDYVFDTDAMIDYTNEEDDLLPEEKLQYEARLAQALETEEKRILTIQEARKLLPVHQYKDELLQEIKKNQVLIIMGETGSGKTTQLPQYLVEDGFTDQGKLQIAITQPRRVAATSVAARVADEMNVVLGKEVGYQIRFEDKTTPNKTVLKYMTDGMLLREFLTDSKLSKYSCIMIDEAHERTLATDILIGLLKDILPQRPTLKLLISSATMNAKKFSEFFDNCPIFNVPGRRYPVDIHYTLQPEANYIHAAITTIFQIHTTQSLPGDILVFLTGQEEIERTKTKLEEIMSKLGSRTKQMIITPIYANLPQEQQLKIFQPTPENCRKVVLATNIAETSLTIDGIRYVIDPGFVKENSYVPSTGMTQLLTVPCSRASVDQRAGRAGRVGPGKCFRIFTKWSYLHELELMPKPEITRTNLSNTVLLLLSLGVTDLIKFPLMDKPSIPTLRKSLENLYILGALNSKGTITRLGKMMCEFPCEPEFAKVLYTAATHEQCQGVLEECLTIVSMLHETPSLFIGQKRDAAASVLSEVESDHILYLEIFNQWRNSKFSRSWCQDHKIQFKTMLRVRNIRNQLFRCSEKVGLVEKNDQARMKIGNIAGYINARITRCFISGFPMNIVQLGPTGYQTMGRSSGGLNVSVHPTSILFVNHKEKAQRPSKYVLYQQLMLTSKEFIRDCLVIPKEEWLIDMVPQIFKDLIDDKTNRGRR

Prp2 [2] = molecular target: T1, Prp2; remark: listed apart in the source
Spp2 = molecular target: T2, Spp2 (UniProt Q02521 36-185)
T2 sequence: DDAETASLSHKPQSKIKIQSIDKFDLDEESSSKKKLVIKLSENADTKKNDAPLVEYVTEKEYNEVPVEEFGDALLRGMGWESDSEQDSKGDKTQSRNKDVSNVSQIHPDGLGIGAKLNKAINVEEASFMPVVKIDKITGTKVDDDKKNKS

Prp2;Spp2 = molecular target: T3, Prp2;Spp2 (Saccharomyces cerevisiae?;Saccharomyces …, UniProt P20095;Q02521 1-876;36-185, |)
T3 sequence 1: T1 sequence
T3 sequence 2: T2 sequence

B1: 24-nt ssRNA (ssRNA)
RNA: GGCCGCGAGAAAAAAAAAAAAAAA
With B1 the Kd (Prp2 [1]) was 53 ± 5 nM, the Kd (Prp2 [2]) was 70 ± 11 nM and the binding result (Spp2) was “no binding”. B1: binds (Prp2;Spp2).
